{"source": "the supplement of paper PMC10567573", "parents": {"B1": {"name": "HESX1 (parent)", "chain": "SKYENYFSASERLSLKRELSWYRG"}}, "data": [{"variants_of": "B1", "experiment": "protein stability index of a GFP-peptide fusion (GPS, HEK-293T) (PSI 1-6); higher = more stable", "conditions": "c terminus: a fixed tail appended", "values": [{"variant": "R17D", "protein stability index": 2.21}, {"variant": "R17L", "protein stability index": 1.38}, {"variant": "R17N", "protein stability index": 1.76}, {"variant": "R17A", "protein stability index": 2.04}, {"variant": "R17C", "protein stability index": 1.61}, {"variant": "R17E", "protein stability index": 1.91}, {"variant": "R17H", "protein stability index": 2.1}, {"variant": "R17K", "protein stability index": 2.27}, {"variant": "R17G", "protein stability index": 1.78}, {"variant": "R17S", "protein stability index": 1.56}, {"variant": "R17M", "protein stability index": 2.72}, {"variant": "R17Q", "protein stability index": 2.29}, {"variant": "R17T", "protein stability index": 1.9}, {"variant": "K16Y", "protein stability index": 1.94}, {"variant": "K16S", "protein stability index": 1.9}, {"variant": "K16N", "protein stability index": 2.17}, {"variant": "K16I", "protein stability index": 1.8}, {"variant": "K16T", "protein stability index": 1.95}, {"variant": "K16H", "protein stability index": 1.78}, {"variant": "K16F", "protein stability index": 1.37}, {"variant": "K16P", "protein stability index": 3.04}, {"variant": "K16A", "protein stability index": 2.32}, {"variant": "K16V", "protein stability index": 2.16}, {"variant": "K16L", "protein stability index": 2.21}, {"variant": "K16R", "protein stability index": 1.42}, {"variant": "Y6V", "protein stability index": 1.27}, {"variant": "Y6L", "protein stability index": 2.85}, {"variant": "Y6M", "protein stability index": 2.15}, {"variant": "Y6N", "protein stability index": 2.79}, {"variant": "Y6K", "protein stability index": 2.05}, {"variant": "Y6Q", "protein stability index": 1.96}, {"variant": "Y6T", "protein stability index": 2.63}, {"variant": "Y6R", "protein stability index": 1.84}, {"variant": "Y6S", "protein stability index": 2.16}, {"variant": "R12C", "protein stability index": 2.4}, {"variant": "R12K", "protein stability index": 1.93}, {"variant": "R12Y", "protein stability index": 2.01}, {"variant": "R12Q", "protein stability index": 1.95}, {"variant": "R12H", "protein stability index": 2.65}, {"variant": "R12V", "protein stability index": 1.55}, {"variant": "R12T", "protein stability index": 2.88}, {"variant": "R12D", "protein stability index": 2.32}, {"variant": "R12S", "protein stability index": 2}, {"variant": "R12F", "protein stability index": 1.55}, {"variant": "R12G", "protein stability index": 1.77}, {"variant": "R12N", "protein stability index": 1.79}, {"variant": "R12M", "protein stability index": 1.06}, {"variant": "R12I", "protein stability index": 2.77}, {"variant": "R12E", "protein stability index": 2.77}, {"variant": "R12L", "protein stability index": 2.03}, {"variant": "F7L", "protein stability index": 2.64}, {"variant": "F7S", "protein stability index": 2.83}, {"variant": "F7H", "protein stability index": 2.72}, {"variant": "F7K", "protein stability index": 1.77}, {"variant": "F7I", "protein stability index": 1.98}, {"variant": "F7D", "protein stability index": 2.39}, {"variant": "F7G", "protein stability index": 1.42}, {"variant": "F7E", "protein stability index": 1.96}, {"variant": "F7T", "protein stability index": 3.02}, {"variant": "F7M", "protein stability index": 2.12}, {"variant": "F7W", "protein stability index": 1.3}, {"variant": "F7V", "protein stability index": 3.05}, {"variant": "F7Y", "protein stability index": 2.63}, {"variant": "E11L", "protein stability index": 2.11}, {"variant": "E11Y", "protein stability index": 1.75}, {"variant": "E11H", "protein stability index": 2.76}, {"variant": "E11N", "protein stability index": 2}, {"variant": "E11D", "protein stability index": 2.39}, {"variant": "E11A", "protein stability index": 1.57}, {"variant": "E11G", "protein stability index": 1.55}, {"variant": "E11T", "protein stability index": 1.67}, {"variant": "E11K", "protein stability index": 2.04}, {"variant": "E11I", "protein stability index": 1.71}, {"variant": "E11V", "protein stability index": 2.37}, {"variant": "E11Q", "protein stability index": 2.49}, {"variant": "S14Y", "protein stability index": 1.92}, {"variant": "S14I", "protein stability index": 1.27}, {"variant": "S14G", "protein stability index": 1.33}, {"variant": "S14P", "protein stability index": 2.96}, {"variant": "S14N", "protein stability index": 2.25}, {"variant": "S14F", "protein stability index": 1.73}, {"variant": "S14C", "protein stability index": 2.07}, {"variant": "S14L", "protein stability index": 1.02}, {"variant": "S14E", "protein stability index": 2.14}, {"variant": "S14W", "protein stability index": 2.21}, {"variant": "S14D", "protein stability index": 3.59}, {"variant": "S14M", "protein stability index": 1.74}, {"variant": "S14Q", "protein stability index": 2.36}, {"variant": "S14H", "protein stability index": 1.99}, {"variant": "S14R", "protein stability index": 2.03}, {"variant": "S10A", "protein stability index": 2.07}, {"variant": "S10N", "protein stability index": 2.13}, {"variant": "S10Y", "protein stability index": 1.67}, {"variant": "S10C", "protein stability index": 2.34}, {"variant": "S10M", "protein stability index": 1.86}, {"variant": "S10P", "protein stability index": 1.95}, {"variant": "S10W", "protein stability index": 2.31}, {"variant": "S10K", "protein stability index": 2.72}, {"variant": "S10R", "protein stability index": 2.3}, {"variant": "S10T", "protein stability index": 2.77}, {"variant": "S10E", "protein stability index": 3.04}, {"variant": "S10Q", "protein stability index": 2.28}, {"variant": "S10F", "protein stability index": 1.07}, {"variant": "S10G", "protein stability index": 1.56}, {"variant": "S10H", "protein stability index": 2.38}, {"variant": "S10D", "protein stability index": 2.19}, {"variant": "A9T", "protein stability index": 2.18}, {"variant": "A9S", "protein stability index": 1.82}, {"variant": "A9F", "protein stability index": 1.51}, {"variant": "A9E", "protein stability index": 3.38}, {"variant": "A9M", "protein stability index": 2.15}, {"variant": "A9N", "protein stability index": 2.86}, {"variant": "A9C", "protein stability index": 2.45}, {"variant": "A9Y", "protein stability index": 2.08}, {"variant": "A9Q", "protein stability index": 2.01}, {"variant": "A9I", "protein stability index": 1.44}, {"variant": "A9V", "protein stability index": 1.41}, {"variant": "A9K", "protein stability index": 2.01}, {"variant": "A9R", "protein stability index": 1.99}, {"variant": "A9L", "protein stability index": 1.58}, {"variant": "A9H", "protein stability index": 1.59}, {"variant": "A9P", "protein stability index": 1.4}, {"variant": "A9D", "protein stability index": 2.73}, {"variant": "A9W", "protein stability index": 1.52}, {"variant": "L13K", "protein stability index": 1.9}, {"variant": "L13P", "protein stability index": 2.35}, {"variant": "L13V", "protein stability index": 2.72}, {"variant": "L13D", "protein stability index": 3.44}, {"variant": "L13N", "protein stability index": 2.31}, {"variant": "L13F", "protein stability index": 1.65}, {"variant": "L13E", "protein stability index": 2.3}, {"variant": "L13M", "protein stability index": 1.63}, {"variant": "L13Y", "protein stability index": 1.93}, {"variant": "L13S", "protein stability index": 2.07}, {"variant": "L13G", "protein stability index": 1.93}, {"variant": "L15N", "protein stability index": 2.33}, {"variant": "L15C", "protein stability index": 1.94}, {"variant": "L15Q", "protein stability index": 2.95}, {"variant": "L15K", "protein stability index": 2.47}, {"variant": "L15E", "protein stability index": 2.22}, {"variant": "L15P", "protein stability index": 2.57}, {"variant": "L15W", "protein stability index": 2.95}, {"variant": "L15H", "protein stability index": 2.07}, {"variant": "L15F", "protein stability index": 1.61}, {"variant": "L15M", "protein stability index": 1.72}, {"variant": "L15Y", "protein stability index": 2.13}, {"variant": "L15V", "protein stability index": 2.06}, {"variant": "L15S", "protein stability index": 2.41}, {"variant": "L15R", "protein stability index": 2.24}, {"variant": "L15I", "protein stability index": 1.86}, {"variant": "L15A", "protein stability index": 2.72}, {"variant": "L15T", "protein stability index": 1.17}, {"variant": "L15D", "protein stability index": 2.65}, {"variant": "S8D", "protein stability index": 3.25}, {"variant": "S8Q", "protein stability index": 2.26}, {"variant": "S8F", "protein stability index": 2.35}, {"variant": "S8H", "protein stability index": 2.01}, {"variant": "S8N", "protein stability index": 1.68}, {"variant": "S8E", "protein stability index": 1.67}, {"variant": "S8R", "protein stability index": 1.44}, {"variant": "S8M", "protein stability index": 1.61}, {"variant": "S8A", "protein stability index": 1.94}, {"variant": "S8I", "protein stability index": 1.94}, {"variant": "S8V", "protein stability index": 1.56}, {"variant": "S8L", "protein stability index": 1.55}, {"variant": "S8K", "protein stability index": 1.62}, {"variant": "S8C", "protein stability index": 2.03}]}]}
